Experimental data taken from article PMC4764983.

Molecular target: histone deacetylase 1 (HDAC1), endogenous mouse (mouse (endogenous in C3H10T1/2 and STO)) (UniProt O09106)
Chain of UniProt O09106 (O09106 whole entry): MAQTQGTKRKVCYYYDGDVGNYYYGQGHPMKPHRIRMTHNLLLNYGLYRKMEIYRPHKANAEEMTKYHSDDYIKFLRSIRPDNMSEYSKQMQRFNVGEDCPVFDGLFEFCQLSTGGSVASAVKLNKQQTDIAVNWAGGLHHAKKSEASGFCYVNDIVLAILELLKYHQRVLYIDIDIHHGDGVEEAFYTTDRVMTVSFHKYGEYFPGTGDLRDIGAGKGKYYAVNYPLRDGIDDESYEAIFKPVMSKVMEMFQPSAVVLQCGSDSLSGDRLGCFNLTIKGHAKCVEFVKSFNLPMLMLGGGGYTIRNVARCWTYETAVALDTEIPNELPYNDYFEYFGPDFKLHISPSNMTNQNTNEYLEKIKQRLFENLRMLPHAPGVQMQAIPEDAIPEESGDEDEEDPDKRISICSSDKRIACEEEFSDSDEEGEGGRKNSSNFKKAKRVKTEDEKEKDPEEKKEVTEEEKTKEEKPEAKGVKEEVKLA

- fold increase in AXIN2 message (Q-PCR) after treatment with the HDAC inhibitor TSA in C3H10T1/2^SS18-SSX1-V5 cells, compared to a 6 fold increase in C3H10T1/2^pLIVc: 3 fold
Substance: V5-tagged SS18-SSX1 fusion protein
